Reference: patent US20220267447A1

What was measured:
JAK2 kinase domain (JH1) = assay: cell-based or functional assay
TYK2 kinase domain (JH1) = assay: cell-based or functional assay
JAK3 kinase domain (JH1) = assay: cell-based or functional assay
[1] = target: JAK1 kinase domain (JH1) (Homo sapiens (Human)) (UniProt P23458); assay: cell-based or functional assay
[2] = target: JAK1-Y1034 phosphopeptide with an alanine substitution at the +3 position (Homo sapiens); assay: ITC
[3] = target: JAK1 activation loop phosphopeptide (Tyr1034 phosphorylated) (Homo sapiens); assay: ITC

Sequence of JAK1 kinase domain (JH1) (Homo sapiens (Human)) (P23458 854-1154 limits assumed): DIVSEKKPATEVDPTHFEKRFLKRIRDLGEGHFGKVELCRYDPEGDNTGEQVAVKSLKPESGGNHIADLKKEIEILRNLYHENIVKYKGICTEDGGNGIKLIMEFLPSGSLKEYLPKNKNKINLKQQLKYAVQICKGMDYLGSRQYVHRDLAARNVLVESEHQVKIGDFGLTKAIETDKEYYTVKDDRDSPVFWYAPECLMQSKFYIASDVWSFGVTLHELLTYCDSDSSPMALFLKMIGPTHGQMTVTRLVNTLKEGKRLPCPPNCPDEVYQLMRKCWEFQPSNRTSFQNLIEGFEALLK
Sequence of human CIS lacking the N-terminal 34 residues (AN34), trimeric complex with elongin B and elongin C (Q9NSE2 35-258): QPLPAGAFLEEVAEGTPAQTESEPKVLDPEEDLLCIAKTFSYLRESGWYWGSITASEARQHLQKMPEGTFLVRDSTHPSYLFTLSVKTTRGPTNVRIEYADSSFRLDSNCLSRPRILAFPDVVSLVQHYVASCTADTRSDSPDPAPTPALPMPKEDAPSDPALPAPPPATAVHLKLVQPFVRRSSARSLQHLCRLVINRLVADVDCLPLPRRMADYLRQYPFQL
Sequence of human CIS lacking the N-terminal 34 residues (AN34), trimeric complex with elongin B and elongin C (Q15370 whole entry): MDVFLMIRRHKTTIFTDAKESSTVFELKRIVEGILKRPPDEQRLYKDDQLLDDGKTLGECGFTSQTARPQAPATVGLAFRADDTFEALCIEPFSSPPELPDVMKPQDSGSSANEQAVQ
Sequence of human CIS lacking the N-terminal 34 residues (AN34), trimeric complex with elongin B and elongin C (Q15369 17-112): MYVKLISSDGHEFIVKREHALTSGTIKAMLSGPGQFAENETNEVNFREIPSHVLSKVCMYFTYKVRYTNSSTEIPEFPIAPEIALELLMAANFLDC

For “hCIS-SH2-BC: recombinant trimeric complex of a human GST-CIS construct (hCIS-SH2) with Elongins B and C (from UniProt Q9NSE2 66-258; Q15370 1-118; Q15369 17-112)”, the kinase inhibition relative to inhibition of JAK1 (in vitro kinase assay with JH1 domains) (JAK2 kinase domain (JH1)) was 20 fold, the kinase inhibition relative to inhibition of JAK1 (in vitro kinase assay with JH1 domains) (TYK2 kinase domain (JH1)) was 20 fold and the kinase inhibition relative to inhibition of JAK1 (in vitro kinase assay with JH1 domains) (JAK3 kinase domain (JH1)) was 20 fold. The IC50, inhibition of JAK1 phosphorylation of a substrate peptide (in vitro kinase assay) [1] was 0.12 µM and the efficiency of JAK1 JH1 kinase inhibition relative to SOCS1 [1] was 100 fold.

“human CIS lacking both the N-terminal region (residues 1-66) and the PEST motif (ANT/APEST), trimeric complex with elongin B and elongin C (from UniProt Q9NSE2 67-258; Q15370 1-118; Q15369 17-112)” showed a fold reduction of binding against the wild-type JAK1-Y1034 phosphopeptide [2] of 4 fold and an IC50, inhibition of the JAK1 kinase domain (JH1) in an in vitro kinase reaction [1] of 0.6 µM.

“human CIS lacking the N-terminal 34 residues (AN34), trimeric complex with elongin B and elongin C (from UniProt Q9NSE2 35-258; Q15370 1-118; Q15369 17-112)” was tested, and the Kd [3] was 2.2 to 10 µM.
